Drawing on article PMC9301129, this text covers ratio to parent for two variants.

B1: UNC93B1-GFP, wild type [modified: N-glycosylated at N251 and N272; N-glycosylated at N251 and N272] [not stated] / TLR9-myc (in UNC93B1 KO iBMDMs) [not stated] (parent)
chain 1: MEVEPPLYPVAGAAGPQGDEDRHGVPDGPEAPLDELVGAYPNYNEEEEERRYYRRKRLGVVKNVLAASTGVTLTYGVYLGLLQMQLILHYDETYREVKYGNMGLPDIDSKMLMGINVTPIAALLYTPVLIRFFGTKWMMFLAVGIYALFVSTNYWERYYTLVPSAVALGMAIVPLWASMGNYITRMSQKYYEYSHYKEQDEQGPQQRPPRGSHAPYLLVFQAIFYSFFHLSFACAQLPMIYFLNNYLYDLNHTLINVQSCGTKSQGILNGFNKTVLRTLPRSKNLIVVESVLMAVAFLAMLMVLGLCGAAYRPTEEIDLRSVGWGNIFQLPFKHVRDFRLRHLVPFFIYSGFEVLFACTGFALGYGVCSMGLERLAYLLIAYSLGASASSVLGLLGLWLPRSVPLVAGAGLHLLLTLSLFFWAPAPRVLQHSWIFYFVAALWGVGSALNKTGLSTLLGILYEDKERQDFIFTIYHWWQAVAIFVVYLGSSLPMKAKLAVLLVTLVAAAASYLWMEQKLQQGLVPRQPRIPKPQHKVRGYRYLEEDNSDESDMEGEQGQGDCAEDEAPQAGPLGAEPAGPCRKPCPYEQALGGDGPEEQ
chain 2: LGTLPAFLPCELKPHGLVDCNWLFLKSVPRFSAAASCSNITRLSLISNRIHHLHNSDFVHLSNLRQLNLKWNCPPTGLSPLHFSCHMTIEPRTFLAMRTLEELNLSYNGITTVPRLPSSLVNLSLSHTNILVLDANSLAGLYSLRVLFMDGNCYYKNPCTGAVKVTPGALLGLSNLTHLSLKYNNLTKVPRQLPPSLEYLLVSYNLIVKLGPEDLANLTSLRVLDVGGNCRRCDHAPNPCIECGQKSLHLHPETFHHLSHLEGLVLKDSSLHTLNSSWFQGLVNLSVLDLSENFLYESITHTNAFQNLTRLRKLNLSFNYRKKVSFARLHLASSFKNLVSLQELNMNGIFFRLLNKYTLRWLADLPKLHTLHLQMNFINQAQLSIFGTFRALRFVDLSDNRISGPSTLSEATPEEADDAEQEELLSADPHPAPLSTPASKNFMDRCKNFKFTMDLSRNNLVTIKPEMFVNLSRLQCLSLSHNSIAQAVNGSQFLPLTNLQVLDLSHNKLDLYHWKSFSELPQLQALDLSYNSQPFSMKGIGHNFSFVTHLSMLQSLSLAHNDIHTRVSSHLNSNSVRFLDFSGNGMGRMWDEGGLYLHFFQGLSGLLKLDLSQNNLHILRPQNLDNLPKSLKLLSLRDNYLSFFNWTSLSFLPNLEVLDLAGNQLKALTNGTLPNGTLLQKLDVSSNSIVSVVPAFFALAVELKEVNLSHNILKTVDRSWFGPIVMNLTVLDVRSNPLHCACGAAFVDLLLEVQTKVPGLANGVKCGSPGQLQGRSIFAQDLRLCLDEVLSWDCFGLSLLAVAVGMVVPILHHLCGWDVWYCFHLCLAWLPLLARSRRSAQTLPYDAFVVFDKAQSAVADWVYNELRVRLEERRGRRALRLCLEDRDWLPGQTLFENLWASIYGSRKTLFVLAHTDRVSGLLRTSFLLAQQRLLEDRKDVVVLVILRPDAHRSRYVRLRQRLCRQSVLFWPQQPNGQGGFWAQLSTALTRDNRHFYNQNFCRGPTAE

In this assay the parent is B1. Briefly: co-immunoprecipitation from isolated phagosomes, band densitometry. The note with it: with TLR9-myc (in UNC93B1 KO iBMDMs), means ± SD of two independent experiments, parent: 1, read off a plot.
Take chain 1 MEVEPPLYPVAGAAGPQGDEDRHGVPDGPEAPLDELVGAYPNYNEEEEERRYYRRKRLGVVKNVLAASTGVTLTYGVYLGLLQMQLILHYDETYREVKYGNMGLPDIDSKMLMGINVTPIAALLYTPVLIRFFGTKWMMFLAVGIYALFVSTNYWERYYTLVPSAVALGMAIVPLWASMGNYITRMSQKYYEYSHYKEQDEQGPQQRPPRGSHAPYLLVFQAIFYSFFHLSFACAQLPMIYFLNNYLYDLNHTLINVQSCGTKSQGILNGFQKTVLRTLPRSKNLIVVESVLMAVAFLAMLMVLGLCGAAYRPTEEIDLRSVGWGNIFQLPFKHVRDFRLRHLVPFFIYSGFEVLFACTGFALGYGVCSMGLERLAYLLIAYSLGASASSVLGLLGLWLPRSVPLVAGAGLHLLLTLSLFFWAPAPRVLQHSWIFYFVAALWGVGSALNKTGLSTLLGILYEDKERQDFIFTIYHWWQAVAIFVVYLGSSLPMKAKLAVLLVTLVAAAASYLWMEQKLQQGLVPRQPRIPKPQHKVRGYRYLEEDNSDESDMEGEQGQGDCAEDEAPQAGPLGAEPAGPCRKPCPYEQALGGDGPEEQ [chain 1 N272Q]: the ratio to parent amounted to 1.1 A.U.
Then chain 1 MEVEPPLYPVAGAAGPQGDEDRHGVPDGPEAPLDELVGAYPNYNEEEEERRYYRRKRLGVVKNVLAASTGVTLTYGVYLGLLQMQLILHYDETYREVKYGNMGLPDIDSKMLMGINVTPIAALLYTPVLIRFFGTKWMMFLAVGIYALFVSTNYWERYYTLVPSAVALGMAIVPLWASMGNYITRMSQKYYEYSHYKEQDEQGPQQRPPRGSHAPYLLVFQAIFYSFFHLSFACAQLPMIYFLNNYLYDLQHTLINVQSCGTKSQGILNGFNKTVLRTLPRSKNLIVVESVLMAVAFLAMLMVLGLCGAAYRPTEEIDLRSVGWGNIFQLPFKHVRDFRLRHLVPFFIYSGFEVLFACTGFALGYGVCSMGLERLAYLLIAYSLGASASSVLGLLGLWLPRSVPLVAGAGLHLLLTLSLFFWAPAPRVLQHSWIFYFVAALWGVGSALNKTGLSTLLGILYEDKERQDFIFTIYHWWQAVAIFVVYLGSSLPMKAKLAVLLVTLVAAAASYLWMEQKLQQGLVPRQPRIPKPQHKVRGYRYLEEDNSDESDMEGEQGQGDCAEDEAPQAGPLGAEPAGPCRKPCPYEQALGGDGPEEQ [chain 1 N251Q], with 1.3 A.U.
